Measurements from the nanobody polyreactivity screen of Harvey et al. (2022).

Assay: yeast display, Sf9 membrane polyspecificity reagent, FACS + sequencing; frameworks hold sequencing errors
In short: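 Genes from sorted yeast were amplified by colony PCR, read by MiSeq 2 × 250 sequencing and filtered on CDR length. These cells carried a synthetic nanobody library in Saccharomyces cerevisiae BJ5465 and were sorted by FACS into low and high (top ~1%) gates on anti-HA and streptavidin fluorescence. Polyreactivity is labelled according to the gate of origin.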

Sequence | polyreactivity (PSR sort gate)
QVQLVESGGGLVQAGGRLRLSCAASGSIFAGYAMGWYRQAPGKERELVAASSTDYADSVKGRFTISRDNAKNTVYLHMNSLKPEDTAVYYCAKVGFGIPGGFYYWGQGTQVTVSS | low polyreactivity
QVQLVESGGGLVQAGGRLRLSCAASGSIFASYALGWYRQAPGKERELVAVITRSGGSTYYADSVKGRFTISRDNAKNTVYLQMNSLKPEDTAVYYCAAQYGRTYYSRREYWGQGTQVTVSS | high polyreactivity
QVQLVESGGGLVQAGGRLRLSCAASGSIFDSYVMGWYRQAPGKERELVAAITYSGGSTYADSVKGRFTISRDNAKNTVYLEMNSLKPEDTAVYYCAAASYFYLYLLEDYWGQRTQVTVSS | low polyreactivity
QVQLVESGGGLVQAGGRLRLSCAASGSIFIGYAMGWYRQAPGKERELVATISGSGGSTYYADSEKGRFTISRDNAKNTVSLQMNSLKPEDSAVYYCAAVSVSSWYDYWGQGTQVTVSS | low polyreactivity
QVQLVESGGGLVQAGGRLRLSCAASGSIMDTNAMGWYRQAPGKERELVARIDIDGSTNYADSVKGRFTISRDNAKKTVYLQMNSLKPEDTAVYYCNKDHSSYGASGYDYWGQGTQVTVSS | low polyreactivity
QVQLVESGGGLVQAGGRLRLSCAASGSNFDIYALGWYRQAPGKERELVAAIRGRGGSTYYADSVKGRFTISRDNAKNTVYLQMNSLKPEDTAVYYCAARNSYGNWRYYYWGQGTQVTVSS | high polyreactivity
QVQLVESGGGLVQAGGRLRLSCAASGSTFATYAMGWYRQAPGKERELVAVISRSGGSTYYADSVKGRFTISRDNAKNTVYLQMNCLKPEDTAVYYCAARPRGKYDYRGQGTQVTVSS | high polyreactivity
QVQLVESGGGLVQAGGRLRLSCAASGSTFDYYTMGGYRQAPGKERELVAGITSGGSTNYADSVKGRFTISRDNAKNTVYLQMNSLKPADTAVYYCAARVSKYYKPYGYWGQGTQVTVSS | high polyreactivity
QVQLVESGGGLVQAGGRLRLSCAASGSTFFKYDMGWYRQAPGKERELVAVITWSGGTTFYADSVKGRFTISRDNAKNTVYLQMNSLKPEDTAVYYCAADYYGYRYDYWGQGTQVTVSS | low polyreactivity
QVQLVESGGGLVQAGGRLRLSCAASGSTFGENVMGWYRQAPGKERELVAAISRGGSTYYADSVKGRFTISRDNAKNTVYLQMNSLKPEDTAVYYCAARTRSGPRYNYNYWGQGTQVTVSS | high polyreactivity
QVQLVESGGGLVQAGGRLRLSCAASGSTFGLNAMGRYRHAPGKEREFVASINFNDGSTYYADSVKGRFTISRDNAKNTVYLRMNSLKPEDTAVYYCAVELWWKWPFYYWGQGTQVTVSS | high polyreactivity
QVQLVESGGGLVQAGGRLRLSCAASGSTFPYNAMGCYRQAPGKERELVAAITSTGDSTYYADSVKGRFTISRDKAKNTVYLQMNSLKPEDTAVYYCAARSYASPGWRYEYWGQGTQVTVSS | low polyreactivity
QVQLVESGGGLVQAGGRLRLSCAASGSTFRRNAMGWYRQAPGKERELVATISPGARTNYADSVKGRFTISRDNAKNTVYLQMNSLKPEDTAVYYCNAEFTLLYPLYDYWGQGTQVTLSS | low polyreactivity
QVQLVESGGGLVQAGGRLRLSCAASGSTFSSNAMGWYRQAPGKERELVAAITTSGGSTYYADSVKGRFTISRDNAKTTVYLQMNSLKPEDTAVYYCAADLVHAYQWSIFLYGYWGQGTQVTVSS | low polyreactivity
QVQLVESGGGLVQAGGRLRLSCAASGSTFVPYAMGWSRQAPGKERELVAGITWSGGRTYYADSVKGRFTISRDNAKNTVYFQLNSLKPEDTAVYYCNVEHLVYKYDGYYSRYYRLYYWGQGTHVTVSS | low polyreactivity
QVQLVESGGGLVQAGGRLRLSCAASGSTFVRNAMGWYRQAPGKERELVAAITGTGDSTYYADSVKGRFTISRDNAKNTVYLQMNSLKPEDTAGYYCDANSDAYRYWYDYWGQGTQVTVSS | low polyreactivity

Sequence | polyreactivity (PSR sort gate)
QVQLVESGGGLVQAGGRLRLSCAASGSTLNRNAMGWYRQAPGKERELVAAIRVSGGSTYYSDSVKGRFTISRDNAKNTVYLQMNSLNPEDTAVYYCGTRYVRARWYGYWGEGTQVTVSS | high polyreactivity
QVQLVESGGGLVQAGGRLRLSCAASGSTLPANAMGWYRQAPGKERELVSAITITTDGSTYYADSVKGRFTISRDNAKNTVYLQMNSLKPEDTAVYYCAVDRYRYHNRKMGYWGQGTEVTVSS | low polyreactivity
QVQLVESGGGLVQAGGRLRLSCAASGSTSLYYAMGWYRQAPGKEREFVAAITWSGGSTYYADSGKGRFTITRDNAKNTVYLQMNSLKPEDTAVYYCAGRSYGYSAGYYWGQGTQVTVSS | high polyreactivity
QVQLVESGGGLVQAGGRLRLSCAASGTIFYYNAMGWYRQAPGKERELVAVISQSGTSTYYADSVKGRFTNSRDNAKNTVYLQMNSLKPEDTAVYYCAADSRHGSIMDYWGLGTQVTVSS | low polyreactivity
QVQLVESGGGLVQAGGRLRLSCAASGTTFWNNAMGWYRQAPGKERELVPGISRSGGSTYYADSVKGRFTISRDNAKNTVYLQMNSLKPEDTAVYYCNKVNYAKRNYWGQGTQVTVSS | low polyreactivity
QVQLVESGGGLVQAGGRLRLSCAAYGSIFDGYAMGWYRQAPGKERELVAAISRGGRTYYADSVKGRFTISRDNAKNTVYLQMNSLKPEDTAVYYCAAVTRLDGNMDYWGQGTQVTVSS | high polyreactivity
QVQLVESGGGLVQAGGRLRLSCADSGRTYRKYAIGWYRQAPGKEMDMVAAISWSGGSTYYANSVKGRFTISRDNAKNTVYLQMNSLKPEDTAVYYCAAVPVHTGSLYWGFTTGYDYWGQGTQVTVSS | low polyreactivity
QVQLVESGGGLVQAGGRLRLSCADSGSTFVNSVMGWYRPAPGKERELVAGIRFRGGRTYYADSVKGRFTISRDNAKNTVYLQMNSLKPEDTAVYYCAKVQRQSVGFDYWGQGTQVTVSS | high polyreactivity
QVQLVESGGGLVQAGGRLRLSCAGSGRIFISNTMGWYRQGPGKERELVASISLRGGSTYYADSVKGRFTISRDNAKNSVYLQMNSLKPEDTAVYYCAAATLRQYDDEYWGQCTQVTVSS | high polyreactivity
QVQLVESGGGLVQAGGRLRLSCAPSGNIFRYYVMGWYRPAPGKEREFLAAITSSGGSTYYADSVKGRFTISRDNAKNTVYLKINSLKPEDTEVYYCAKDYWDPGWAEYDYWGQGTQVTVSS | low polyreactivity
QVQLVESGGGLVQAGGRLRLSCAPSGRTFKYYAMGGYREAPGKERELVASISSGGNTNYADSVKGRFTISRDNATNSVYFQMNSLKPEDTAVYYCAASTWQNRRSYYWGQGTQVTVSS | high polyreactivity
QVQLVESGGGLVQAGGRLRLSCAPSGSTFHSNDMGWYRQAPGKERELVAAITWSGARTYYVDSVKGRFTISRDNAKNTVYLQMNSLKPEDTAVYSCAKKAPSDRNNYWGQGTQVTVSS | high polyreactivity
QVQLVESGGGLVQAGGRLRLSCPASGSIFGGYAMGWYRQAPGKERELVAGITRSGGSTYYADSVKGRFTISRYNAKNTVYFQMNSLKPEDTAVYYCAVEIQFYRSPRKVRSYDYWGQGTQVTVSS | low polyreactivity
QVQLVESGGGLVQAGGRLRLSCPASGSTFYYYGMGWYRQAHGKERELVAAINCSCGTTYYADSVKGRFTISRDNAKNTVYLQLNSLKPEDTAVYYCAAAFYIYGVEGDYWGQGTQVTVSS | low polyreactivity
QVQLVESGGGLVQAGGRLRLSCSASGRIFATYAMGWYRQAPGKERELVASISRRGGSTYYADSVKGRFTISRDNAKKTVYLQMNSLKPEDTAVYYCAKLFDTERGYNYWGQGTQVTVSS | high polyreactivity
QVQLVESGGGLVQAGGRLRLSCSASGSTFGYYAMGWYRQAHGKQRELDASITWTGGSTYYADSVKGRFTISRDNAKYTVYLLMNSLKPEDTAVYYCAAQLEASYWLWTGYGYLGQGTQVTVSS | high polyreactivity
